Among the data in article doi:10.1101/2022.04.26.489478 are percent recruited less than wild type C53 values, retold here.

For this test, the target named is GST-GABARAP (human), O95166. The experiment in a line: microscopy-based on-bead protein-protein interaction assay. Particulars: remark: other sources report otherwise.
GST-GABARAP (human), O95166, sequence (O95166 whole entry): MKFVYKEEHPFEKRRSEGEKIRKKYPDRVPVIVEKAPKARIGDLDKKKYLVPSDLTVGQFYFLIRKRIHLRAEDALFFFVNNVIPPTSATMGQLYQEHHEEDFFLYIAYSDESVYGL

B1: mCherry tagged HsC53^sAIM, Q96JB5 1-506 (natural protein)
chain: MEDHQHVPIDIQTSKLLDWLVDRRHCSLKWQSLVLTIREKINAAIQDMPESEEIAQLLSGSYIHYFHCLRILDLLKGTEASTKNIFGRYSSQRMKDWQEIIALYEKDNTYLVELSSLLVRNVNYEIPSLKKQIAKCQQLQQEYSRKEEECQAGAAEMREQFYHSCKQYGITGENVRGELLALVKDLPSQLAEIGAAAQQSLGEAIDVYQASVGFVCESPTEQVLPMLRFVQKRGNSTVYEWRTGTEPSVVERPHLEELPEQVAEDAIDAGDFGVEAVSEGTDSGISAEAAGIDAGIFPESDSKDPGGDGIDAGDDAVALQITVLEAGTQAPEGVARGPDALTLLEYTETRNQFLDELMELEIFLAQRAVELSEEADVLSVSQFQLAPAILQGQTKEKMVTMVSVLEDLIGKLTSLQLQHLFMILASPRYVDRVTEFLQQKLKQSQLLALKKELMVQKQQEALEEQAALEPKLDLLLEKTKELQKLIEADISKRYSGRPVNLMGTSL
In turn, B1 returned a percent recruited less than wild type C53 of 78%.
